# Source: publication PMC9270954
# Biological target: GST–Rac1a (full-length Dictyostelium Rac1a as a GST fusion, GTP-bound form) (Dictyostelium) (UniProt P34144)
Substance,"fold activation of the GTP hydrolysis rate of GST–Rac1a (10 µM) by 2.5 µM GST–GAP, 10 min at 20°C, free phosphate by CytoPhos; Rac1a alone normalized to 1.0","fold activation of the GTP hydrolysis rate of GST–Rac1a (10 µM) by 2.5 µM GST–GAP-RΔA, 10 min at 20°C, free phosphate by CytoPhos; Rac1a alone normalized to 1.0"
"GST–GAP (isolated GAP domain of CARMIL-GAP, residues 715–858, as a GST fusion) (domain or fragment)",5.8 fold,
"GST–GAP-RΔA (GAP domain of CARMIL-GAP with the conserved arginine changed to alanine, as a GST fusion) (domain or fragment)",,1.74 fold
